Experimental data taken from the supplement of paper PMC10724198.

What follows are sequences tested on Saccharomyces cerevisiae (assay: protein stability index of tFT-peptide fusion in wild type (PSI (0-1 scale)); higher = more stable (slower turnover)). Conditions: genetic background: wild type.
Experimental: (§1)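 MPS profiling in S. cerevisiae of two library types built from selected 12-aa C-degron peptides (IN1, IN2, LN1, LN3, VN2, R1-R5, W1-W3, Atg1 and Rpa12 C-termini): saturation mutagenesis libraries and C-terminal +1 capping libraries (13 aa). Each peptide is fused to the C-terminus of a sfGFP-mCherry timer, after a GGGS linker. Cells are FACS-sorted into 8 mCherry/sfGFP bins and sequenced. PSI runs from 0 (unstable) to 1 (stable), measured once in wild type and in the das1Δ or doa10Δ background.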
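Wherever protein stability index of tFT-peptide fusion in deletion strain of DAS1 is given: PSI is a weighted mean of each variant's read distribution over the sorted stability bins, computed only for variants having over 10 reads in total.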
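Wherever protein stability index of tFT-peptide fusion in wild type is given: PSI derived as read-weighted mean over the 8 sorting bins, only variants exceeding 10 total reads kept, mCherry placed adjacent to the peptide and sfGFP distal.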

| Sequence | protein stability index |
| --- | --- |
| LVVYLSCVACINL | 0.0224 |
| LVVYLSCVACPN | 0.0732 |
| LVVYLSCVACRN | 0.0192 |
| LVVYLSCVMCIN | 0.0111 |
| LVVYLSCVPCIN | 0.237 |
| LYVYLSCVACIN | 0.0152 |
| NKILRQKMNHQN | 0.113 |
| PDKFNHLIKLLN | 0.117 |
| PDKPNHLIKLLN | 0.199 |
| PDKRGHLIKLLN | 0.113 |
| PDKRHHLIKLLN | 0.113 |
| PDKRIHLIKLLN | 0.0865 |
| PDKRNCLIKLLN | 0.148 |
| PDKRNELIKLLN | 0.115 |
| PDKRNGLIKLLN | 0.222 |
| PDKRNHGIKLLN | 0.41 |
| PDKRNHLHKLLN | 0.265 |
| PDKRNHLIKHLN | 0.0778 |
| PDKRNHLIKLLD | 0.666 |
| PDKRNHLIKLLE | 0.579 |
| PDKRNHLIKLLNH | 0.142 |
| PDKRNHLIKLLNK | 0.655 |
| PDKRNHLIKLLNN | 0.137 |
| PDKRNHLIKLRN | 0.623 |
| PDKRNHLISLLN | 0.438 |

| Sequence | protein stability index |
| --- | --- |
| PDKRNHLIWLLN | 0.0587 |
| PDKRNHLIYLLN | 0.0898 |
| PDKRNHMIKLLN | 0.0922 |
| PDKRNHNIKLLN | 0.172 |
| PDKRNHPIKLLN | 0.282 |
| PDKRNYLIKLLN | 0.119 |
| PDKRQHLIKLLN | 0.065 |
| PDKRWHLIKLLN | 0.0628 |
| PDPRNHLIKLLN | 0.15 |
| PDWRNHLIKLLN | 0.144 |
| PFKRNHLIKLLN | 0.0943 |
| PNKRNHLIKLLN | 0.0744 |
| PSFAASFWRVVG | 0.148 |
| PSLAAPFWRVVG | 0.182 |
| PSLAAQFWRVVG | 0.14 |
| PSLAASFNRVVG | 0.643 |
| PSLAASFWFVVG | 0.658 |
| PSLAASFWKVVG | 0.31 |
| PSLAASFWRIVG | 0.143 |
| PSLAASFWRQVG | 0.146 |
| PSLAASFWRTVG | 0.172 |
| PSLAASFWRVEG | 0.672 |
| PSLAASFWRVHG | 0.193 |
| PSLAASFWRVVGA | 0.545 |

Each sequence was assayed on Saccharomyces cerevisiae (assay: protein stability index of tFT-peptide fusion in deletion strain of DAS1 (PSI (0-1 scale)); higher = more stable (slower turnover)). Conditions: not given.
Experimental: as §1

| Sequence | protein stability index |
| --- | --- |
| LVVYLSCVACINL | 0.0337 |
| LVVYLSCVACPN | 0.0988 |
| LVVYLSCVACRN | 0.0464 |
| LVVYLSCVMCIN | 0.0156 |
| LVVYLSCVPCIN | 0.305 |
| LYVYLSCVACIN | 0.0144 |
| NKILRQKMNHQN | 0.701 |
| PDKFNHLIKLLN | 0.622 |
| PDKPNHLIKLLN | 0.607 |
| PDKRGHLIKLLN | 0.593 |
| PDKRHHLIKLLN | 0.705 |
| PDKRIHLIKLLN | 0.589 |
| PDKRNCLIKLLN | 0.586 |
| PDKRNELIKLLN | 0.608 |
| PDKRNGLIKLLN | 0.614 |
| PDKRNHGIKLLN | 0.587 |
| PDKRNHLHKLLN | 0.59 |
| PDKRNHLIKHLN | 0.601 |
| PDKRNHLIKLLD | 0.611 |
| PDKRNHLIKLLE | 0.606 |
| PDKRNHLIKLLNH | 0.669 |
| PDKRNHLIKLLNK | 0.67 |
| PDKRNHLIKLLNN | 0.666 |
| PDKRNHLIKLRN | 0.672 |
| PDKRNHLISLLN | 0.614 |

| Sequence | protein stability index |
| --- | --- |
| PDKRNHLIWLLN | 0.705 |
| PDKRNHLIYLLN | 0.702 |
| PDKRNHMIKLLN | 0.625 |
| PDKRNHNIKLLN | 0.602 |
| PDKRNHPIKLLN | 0.574 |
| PDKRNYLIKLLN | 0.601 |
| PDKRQHLIKLLN | 0.562 |
| PDKRWHLIKLLN | 0.633 |
| PDPRNHLIKLLN | 0.582 |
| PDWRNHLIKLLN | 0.627 |
| PFKRNHLIKLLN | 0.587 |
| PNKRNHLIKLLN | 0.597 |
| PSFAASFWRVVG | 0.703 |
| PSLAAPFWRVVG | 0.696 |
| PSLAAQFWRVVG | 0.696 |
| PSLAASFNRVVG | 0.673 |
| PSLAASFWFVVG | 0.666 |
| PSLAASFWKVVG | 0.674 |
| PSLAASFWRIVG | 0.675 |
| PSLAASFWRQVG | 0.653 |
| PSLAASFWRTVG | 0.698 |
| PSLAASFWRVEG | 0.687 |
| PSLAASFWRVHG | 0.686 |
| PSLAASFWRVVGA | 0.681 |
